Columns and labels:
[1] = target: FtsZ (tubulin-like cell division protein) of E. coli, untagged (E. coli) (UniProt P0A9A6)
[2] = target: FtsZ (tubulin-like cell division protein) of E. coli, untagged (E. coli) (UniProt P0A9A6); remark: listed apart in the source
[3] = target: the molecule itself; assay: 90° angle light scattering; 5 µM FtsZ in polymerization buffer (50 mM MES, 2.5 mM MgCl2, 1 mM EGTA, 50 mM KCl, pH 6.5), assembly started with 1 mM GTP, 30°C

Binder	reduction of FtsZ's GTP hydrolysis (regenerative coupled GTPase assay), 5 µM FtsZ, ratios FtsZ:OpgH^N of 1:1 (25%), 1:1.5 (55%) and 1:2 (84%); FtsZ alone 5.1 GTP/minute/FtsZ [1]	apparent critical concentration (CcApp) of FtsZ for GTP hydrolysis at 0 µM (0.69 µM), 2.5 µM (1.31 µM), 5 µM (1.85 µM) and 10 µM OpgH^N (4.08 µM) [2]	binding result [3]
OpgH^N (N-terminal cytoplasmic domain of the glucosyltransferase OpgH, residues 1-138) (domain or fragment) MNKTTEYIDAMPIAASEKAALPKTDIRAVHQALDAEHRTWAREDDSPQGSVKARLEQAWPDSLADGQLIKDDEGRDQLKAMPEAKRSSMFPDPWRTNPVGRFWDRLRGRDVTPRYLARLTKEEQESEQKWRTVGTIRR	84%	4.08 µM	
FtsZ (tubulin-like cell division protein) of E. coli, untagged (natural protein, UniProt P0A9A6 1-383, looked up, FtsZ, cell division protein of E. coli, in its native (untagged) form; also called E. coli FtsZ; source: untagged) MFEPMELTNDAVIKVIGVGGGGGNAVEHMVRERIEGVEFFAVNTDAQALRKTAVGQTIQIGSGITKGLGAGANPEVGRNAADEDRDALRAALEGADMVFIAAGMGGGTGTGAAPVVAEVAKDLGILTVAVVTKPFNFEGKKRMAFAEQGITELSKHVDSLITIPNDKLLKVLGRGISLLDAFGAANDVLKGAVQGIAELITRPGLMNVDFADVRTVMSEMGYAMMGSGVASGEDRAEEAAEMAISSPLLEDIDLSGARGVLVNITAGFDLRLDEFETVGNTIRAFASDNATVVIGTSLDPDMNDELRVTVVATGIGMDKRPEITLVTNKQVQQPVMDRYQQHGMAPLTQEQKPVAKVVNDNAPQTAKEPDYLDIPAFLRKQAD			binds
